Test results published in US10130693B2, “Peptides, combination of peptides and scaffolds for use in immunotherapeutic treatment of various cancers” (Immatics Biotechnologies GmbH, priority 2015, dated 2018).

Biological target: HLA-A*02:01 (Homo sapiens, UniProt P04439, D140Y/D185E/D98H/E176V/E277Q/G131W/G231S/I119V/I121R/I166T/I218V/L300P/L318F/N151K/N90K/P208A/P217A/Q86G/Q94H/R138H/R169H/T345S)
Experiment: MHC binding assay, UV-ligand exchange with beta2m ELISA (exchange yield), HLA-A*02
Conditions: binding to HLA-A*02 ranged by peptide exchange yield
From the text: Candidate peptides for T cell based therapies according to the present invention were further tested for their MHC binding capacity (affinity). The individual peptide-MHC complexes were produced by UV-ligand exchange, where a UV-sensitive peptide is cleaved upon UV-irradiation, and exchanged with the peptide of interest as analyzed. Only peptide candidates that can effectively bind and stabilize the peptide-receptive MHC molecules prevent dissociation of the MHC complexes. To determine the yield of the exchange reaction, an ELISA was performed based on the detection of the light chain (β2m) of stabilized MHC complexes. The assay was performed as generally described in Rodenko et al. (Rodenko et al., 2006).
96 well MAXISorp plates (NUNC) were coated over night with 2 ug/ml streptavidin in PBS at room temperature, washed 4× and blocked for 1 h at 37° C. in 2% BSA containing blocking buffer. […] Peptide-MHC monomers of the UV-exchange reaction were diluted 100 fold in blocking buffer. Samples were incubated for 1 h at 37° C., washed four times, incubated with 2 ug/ml HRP conjugated anti-β2m for 1h at 37° C., washed again and detected with TMB solution that is stopped with […]. Absorption was measured at 450 nm. Candidate peptides that show a high exchange yield (preferably higher than 50%, most preferred higher than 75%) are generally preferred for a generation and production of antibodies or fragments thereof, and/or T cell receptors or fragments thereof, as they show sufficient avidity to the MHC molecules and prevent dissociation of the MHC complexes.

Substance | Peptide exchange (MHC class I binding score)
66 (FITDFYTTV; listed as Homo sapiens) [compound 66] | +++ (50%-75% = +++)
39 (ALMAVVSGL; listed as Homo sapiens) [compound 39] | +++ (50%-75% = +++)
18 (YVLNEEDLQKV; listed as Homo sapiens) [compound 18] | +++ (50%-75% = +++)
84 (FLEEEITRV; listed as Homo sapiens) [compound 84] | +++ (50%-75% = +++)
82 (VLLRVLIL; listed as Homo sapiens) [compound 82] | ++ (20%-49% = ++)
79 (SLVPLQILL; listed as Homo sapiens) [compound 79] | ++++ (>=75% = ++++)
76 (ILLDESNFNHFL; listed as Homo sapiens) [compound 76] | +++ (50%-75% = +++)
81 (VLFLGKLLV; listed as Homo sapiens) [compound 81] | ++ (20%-49% = ++)
51 (LLLDGDFTL; listed as Homo sapiens) [compound 51] | +++ (50%-75% = +++)
28 (TLYSMDLMKV; listed as Homo sapiens) [compound 28] | +++ (50%-75% = +++)
12 (GLIYEETRGV; listed as Homo sapiens) [compound 12] | ++ (20%-49% = ++)
77 (IVLSTIASV; listed as Homo sapiens) [compound 77] | +++ (50%-75% = +++)
72 (GMIGFQVLL; listed as Homo sapiens) [compound 72] | +++ (50%-75% = +++)
89 (YLVAHNLLL; listed as Homo sapiens) [compound 89] | +++ (50%-75% = +++)
70 (GLFSQHFNL; listed as Homo sapiens) [compound 70] | +++ (50%-75% = +++)
59 (ALTKILAEL; listed as Homo sapiens) [compound 59] | +++ (50%-75% = +++)
339 (VLGPGPPPL; listed as Homo sapiens) [compound 339] | ++ (20%-49% = ++)
74 (ILDETLENV; listed as Homo sapiens) [compound 74] | ++ (20%-49% = ++)
78 (LLWGHPRVA; listed as Homo sapiens) [compound 78] | +++ (50%-75% = +++)
14 (LLDHLSFINKI; listed as Homo sapiens) [compound 14] | ++ (20%-49% = ++)
64 (GLSSSSYEL; listed as Homo sapiens) [compound 64] | ++ (20%-49% = ++)
40 (SLLALPQDLQA; listed as Homo sapiens) [compound 40] | +++ (50%-75% = +++)

Substance | Peptide exchange (MHC class I binding score)
13 (VLRDNIQGI; listed as Homo sapiens) [compound 13] | +++ (50%-75% = +++)
47 (GLYQAQVNL; listed as Homo sapiens) [compound 47] | +++ (50%-75% = +++)
50 (EYALLYHTL; listed as Homo sapiens) [compound 50] | ++ (20%-49% = ++)
16 (HLYNNEEQV; listed as Homo sapiens) [compound 16] | ++ (20%-49% = ++)
49 (LLDESKLTL; listed as Homo sapiens) [compound 49] | +++ (50%-75% = +++)
67 (GVIETVTSL; listed as Homo sapiens) [compound 67] | ++ (20%-49% = ++)
48 (TLDHKPVTV; listed as Homo sapiens) [compound 48] | ++ (20%-49% = ++)
91 (SSLEPQIQPV; listed as Homo sapiens) [compound 91] | + (<20% = +)
71 (GLITVDIAL; listed as Homo sapiens) [compound 71] | +++ (50%-75% = +++)
75 (ILDNVKNLL; listed as Homo sapiens) [compound 75] | +++ (50%-75% = +++)
42 (VLSPFILTL; listed as Homo sapiens) [compound 42] | +++ (50%-75% = +++)
333 (GTFLEGVAK; listed as Homo sapiens) [compound 333] | +++ (50%-75% = +++)
325 (RLLPKVQEV; listed as Homo sapiens) [compound 325] | ++ (20%-49% = ++)
80 (TLDEYLTYL; listed as Homo sapiens) [compound 80] | +++ (50%-75% = +++)
54 (FINPKGNWLL; listed as Homo sapiens) [compound 54] | +++ (50%-75% = +++)
337 (KVLGKIEKV; listed as Homo sapiens) [compound 337] | +++ (50%-75% = +++)
4 (ELAEIVFKV; listed as Homo sapiens) [compound 4] | +++ (50%-75% = +++)
44 (GLLWQIIKV; listed as Homo sapiens) [compound 44] | ++ (20%-49% = ++)
5 (SLFGQEVYC; listed as Homo sapiens) [compound 5] | +++ (50%-75% = +++)
330 (FLWPKEVEL; listed as Homo sapiens) [compound 330] | +++ (50%-75% = +++)
21 (SLYHRVLLY; listed as Homo sapiens) [compound 21] | ++++ (>=75% = ++++)
336 (GLMDGSPHFL; listed as Homo sapiens) [compound 336] | ++ (20%-49% = ++)
